Assays:
[1] = target: human μ-opioid receptor (pcDNA3.1-human MOR) (human) (UniProt P35372); experiment: radioligand binding
[2] = target: human μ-opioid receptor (pcDNA3.1-human MOR) (human) (UniProt P35372)
[3] = target: human μ-opioid receptor (pcDNA3.1-human MOR) (human) (UniProt P35372); remark: listed apart in the source
[4] = target: human δ-opioid receptor (pcDNA3.1-human DOR) (human) (UniProt P41143)

Row | Substance | Kd [1] | pKd [1] | maximal net BRET in the G protein (GoA) dissociation assay [2] | Gi/o-mediated cAMP inhibition (GloSensor, HEKT cells), pEC50 [3] | Gi/o-mediated cAMP inhibition (GloSensor, HEKT cells), pEC50 [4]
1 | [D-Ala2, N-MePhe4, Gly-ol]-enkephalin (peptide) | 4.37 nM | 8.36 | 0.15 | 8.65 | 
2 | DADLE (peptide) |  |  |  |  | 9.69

— PMC10320493
